The results in this text go back to paper PMC10357448.

A short description of the data set: In vitro trypsin digestion, SDS-PAGE densitometry. The settings on record: glycan changed form; control: WT (HEK293), one N-glycan.

B1: Interleukin-4 (IL-4): WT (P. pastoris) (protein)
parent chain: MGLTSQLLPPLFFLLACAGNFVHGHKCDITLQEIIKTLNSLTEQKTLCTELTVTDIFAASKNTTEKETFCRAATVLRQFYSHHEKDTRCLGATAQQFHRHKQLIRFLKRLDRNLWGLAGLNSCPVKEANQSTLENFLERLKTIMREKYSKCSS
B1: the “degradation_or_half_life, half_life” value is “decreases, 2.6 ± 0.2 vs 4.9 ± 0.7”.
